This is an account of results in US20150368309A1 (SHIRE HUMAN GENETIC THERAPIES, published 2015).

Assay [1] concerns the target T1, mouse sFlt-1 (mouse, UniProt P35969 23-759, limits assumed).
T1 construct: also called msFlt-1
T1 sequence (looked up): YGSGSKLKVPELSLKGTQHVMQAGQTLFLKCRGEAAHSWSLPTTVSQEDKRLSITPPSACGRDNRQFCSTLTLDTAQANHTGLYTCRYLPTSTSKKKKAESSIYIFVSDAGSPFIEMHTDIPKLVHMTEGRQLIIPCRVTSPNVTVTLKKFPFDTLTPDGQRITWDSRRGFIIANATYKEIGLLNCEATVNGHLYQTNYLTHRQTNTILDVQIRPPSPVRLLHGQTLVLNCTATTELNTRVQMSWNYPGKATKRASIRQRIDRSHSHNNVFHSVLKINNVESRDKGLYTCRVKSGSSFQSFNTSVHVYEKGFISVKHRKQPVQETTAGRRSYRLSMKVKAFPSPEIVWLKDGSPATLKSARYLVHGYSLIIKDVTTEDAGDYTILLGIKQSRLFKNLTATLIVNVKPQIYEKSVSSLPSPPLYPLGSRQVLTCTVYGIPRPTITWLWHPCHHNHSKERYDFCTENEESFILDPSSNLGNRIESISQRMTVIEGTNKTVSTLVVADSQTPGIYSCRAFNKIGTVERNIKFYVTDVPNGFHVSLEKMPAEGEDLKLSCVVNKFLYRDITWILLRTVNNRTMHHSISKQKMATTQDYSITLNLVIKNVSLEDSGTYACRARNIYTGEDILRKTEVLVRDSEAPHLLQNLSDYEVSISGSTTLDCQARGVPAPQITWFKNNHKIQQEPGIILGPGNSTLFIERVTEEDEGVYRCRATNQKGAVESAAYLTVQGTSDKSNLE
The experiment in a line: SPR (Biacore T200), msFlt-1 captured, PLGF as analyte, 1:1 model. On the procedure: (§1) In the capture approach, goat anti-hIgG Fc polyclonal antibody (30 μg/mL in 10 mM acetate buffer, pH 5.0) was immobilized onto a CM5 chip by amine coupling. The immobilization level or surface density of anti-hIgG Fc antibody was controlled between 6000 to 8000 RU. For the kinetic study, sFlt-1-Fc was captured on the surface that was immobilized with the anti-hIgG Fc antibody, before each injection of PLGF variants. The capture level of sFlt-1-Fc (10 μg/mL) was controlled by varying contact time, 10 to 30 seconds, at flow rate 10 μL/min. PLGF variants, as analytes, were serially diluted in HBS-EP+ buffer from 50 to 0.03 nM, and injected to the surface that captured sFlt-1-Fc. The association time for each PLGF variants injection was 300 seconds at 30 μL/min and dissociation time was 600 seconds at the same flow rate. After each round of PLGF variants' injection, a regeneration of […] H3PO4 pH1.8 at 60 μl/min for 90 seconds was performed. The regeneration step effectively removes the complex of sFlt-1-Fc and PLGF variants from the surface that was immobilized with anti-hIgG Fc antibody. A stabilization step was applied for 90 seconds after regeneration.
(§2) The binding characteristics of PLGF variants, PLGF C59A, human WT PLGF and mouse WT PLGF, with msFlt-1 were studied in the mouse model. The same capture approach for hsFlt-1 was used for the msFlt-1.
In general terms: SPR reads the build-up and loss of mass on a sensor chip optically.

Assay [2] addresses T2, human sFlt-1-Fc (human, UniProt P17948-2 27-687, limits assumed).
T2 construct: A bought fusion protein; also called hsFlt-1-Fc; hsFlt-1-Fc dimer; not shown: Fc part (captured and detected with anti-human IgG Fc)
The assay is described as follows: SPR (Biacore T200), hsFlt-1-Fc, 1:1 model; column 'KD (M) Average' of the two runs.

The target in assay [3] is T2, human sFlt-1-Fc. The experiment in a line: SPR (Biacore T200), hsFlt-1-Fc captured by anti-hIgG Fc, PLGF as analyte, 1:1 model. On the procedure: as §1
Two BIACORE experiment formats, single cycle kinetics and anti-Fc capture approach, were used to study binding characteristic of PLGF variants with hsFlt-1.

Assay [4] concerns the target Flt-1 receptor (plate based assay) (Homo sapiens (Human), UniProt P17948 27-758). The experiment in a line: plate based assay: Flt-1 captured by coated mouse monoclonal anti-Flt-1 antibody, bound PLGF detected with biotinylated goat anti-PLGF antibody and streptavidin-HRP, OD450. The method, then:
A plate based assay was performed to examine the binding of mutant PLGF protein to Flt-1. Briefly, plates were coated with a mouse monoclonal anti-Flt-1 antibody for capture. After washing and blocking steps, 250 ng/ml of Flt-1 receptor was incubated with WT PLGF (0-400,000 pg/ml) or PLGF C59A (0-40,000 pg/ml) in the plate. After further washing steps, bound WT or mutant PLGF were detected using a biotinylated goat anti-PLGF antibody and streptavidin-HRP immunodetection system. PLGF C59A appeared to bind Flt-1 with lower affinity than WT PLGF. (FIG. 1).

Assay [5] has as its target T2, human sFlt-1-Fc. The experiment in a line: SPR (Biacore T200), hsFlt-1-Fc captured by anti-hIgG Fc, PLGF as analyte, 1:1 model; first of the two unlabelled rows for Human WT-PLGF on Human sFlt-1.
Assay [6] concerns the target T1, mouse sFlt-1. The experiment in a line: SPR (Biacore T200), msFlt-1 captured, 1:1 model; column 'KD (M) Average' of the two runs. On the procedure:
as §1, §2

The target in assay [7] is T2, human sFlt-1-Fc. The assay is described as follows: VEGF:sFlt1 inhibition ELISA: binding of human sFlt-1 Fc to immobilized human VEGF in the presence of PLGF, detected with HRP anti-human IgG Fc, normalized to binding without PLGF. On the procedure:
Inhibition of binding of VEGF to sFlt-1 by WT PLGF and PLGFC59A was also assessed by ELISA. The addition of recombinant human […] inhibited binding of recombinant VEGF to recombinant human sFlt-1 chimera (FIG. 6). Binding of human sFlt-1 Fc to immobilized human VEGF was quantified by immunodetection with HRP conjugated anti-human IgG Fc. Data were normalized to binding sFlt-1 Fc to VEGF in the absence of PLGF.
(An ELISA detects its analyte on a solid surface through an enzyme-linked reagent.)

For assay [8], the target named is T1, mouse sFlt-1. The assay is described as follows: SPR, capture approach. The method, then: as §1, §2
Assay [9] addresses T2, human sFlt-1-Fc. The experiment in a line: surface plasmon resonance (BIACORE), overlaid multi-cycle sensorgrams with 1:1 binding model fit; the sheet says only 'sFlt-1', neither species nor format is printed.
The target of assay [10] is T2, human sFlt-1-Fc. The assay is described as follows: isothermal titration calorimetry, PLGF C59A (77 uM) titrated into sFlt-1-Fc (5.3 uM), 25 C, PBS pH 7.4. On the procedure: (§3) PLGF C59A and human sFlt-1-Fc (Cat#321-FL/CF, R&D System) were extensively dialyzed against PBS pH 7.4 buffer overnight. After dialysis, the proteins were concentrated using VIVISPIN 500 (10 kDa Cutoff, Cat# vs0601). The ratio of PLGF C59A in syringe to sFlt-1-Fc in the cell was about 10:1, with PLGF C59A concentration to be 77 μM, and the concentration of sFlt1-Fc to be 5.3 μM. Titrations were carried out using 2.0-μL injections for total 18 injections. An initial 2-μl injection was carried out but the data not included in the final data analysis. All titrations were done at 25° C. The binding isotherm was fitted with nonlinear regression on ORIGIN (GE MICROCAL, INC). The stoichiometry (N) of the binding interaction, the equilibrium association constant (KA) and enthalpy (ΔH) of the complex formation were calculated from the titration data.

The target of assay [11] is T2, human sFlt-1-Fc. The assay is described as follows: isothermal titration calorimetry, PLGF C59A in the syringe titrated into sFlt-1-Fc in the cell, 25 C, PBS pH 7.4, model OneSites. The method, then: as §3
(In general: ITC needs no label: the signal is the heat of the interaction.)

For assay [12], the target named is T2, human sFlt-1-Fc. The assay is described as follows: SPR (Biacore T200), hsFlt-1-Fc, 1:1 model; format of this run (capture or single cycle) not marked in the table. On the procedure: In the single cycle kinetic approach, PLGF C59A at 50 μg/ml in 10 mM acetate buffer pH 5.0 was immobilized via ligand thiol coupling to ˜200 RU. sFlt-1-Fc dimer was serially diluted in HBS-EP+ running buffer from 30 to 1.875 nM. The sFlt-1-Fc dimer was injected from low to high concentration sequentially, without dissociation phase and regeneration step. The association step was 180 seconds per injection at 30 μL/min. At the end of the last injection, one single dissociation step was performed at 30 μL/min, for one hour to collect sufficient dissociation data.
Due to the nonspecific binding of hsFlt-1 on the reference cells and the poor regeneration conditions for PLGF C59A, a single cycle kinetic method were adopted by immobilizing PLGF C59A vial thiol coupling, and injecting hsFlt-1 as analyte. In the single cycle kinetic approach, PLGF C59A was immobilized onto CM4 chips through free cysteine residuals, C69 and C125, in PLGF C59A. Concentration of the Flt1-Fc dimer injected was varied from 0.37 to 30 nM. The binding characteristics, association rate constant (Ka), dissociation rate constant (Kd) and equilibrium dissociation constant (KD), are summarized in Table 6.

What is called koff is the first-order rate constant of dissociation. Usually kon stands for the second-order rate constant of association. The low end stands for slow association, the high end for fast association. For orientation: Kd means the free concentration of one partner at which half of the binding sites on the other are occupied at equilibrium, for simple one-to-one binding. Lower therefore signals higher affinity. One may read the EC50 (read off the curve) as the concentration at which the effect is half-maximal. What is called IC50 is the concentration that gives 50% inhibition.

Values joined by “and” are separate entries in the source; they are usually repeats but may differ in a detail not shown here. Identical values can stand only once.

T2 sequence (P17948 other isoform, or with tags, fused parts or gaps limits assumed): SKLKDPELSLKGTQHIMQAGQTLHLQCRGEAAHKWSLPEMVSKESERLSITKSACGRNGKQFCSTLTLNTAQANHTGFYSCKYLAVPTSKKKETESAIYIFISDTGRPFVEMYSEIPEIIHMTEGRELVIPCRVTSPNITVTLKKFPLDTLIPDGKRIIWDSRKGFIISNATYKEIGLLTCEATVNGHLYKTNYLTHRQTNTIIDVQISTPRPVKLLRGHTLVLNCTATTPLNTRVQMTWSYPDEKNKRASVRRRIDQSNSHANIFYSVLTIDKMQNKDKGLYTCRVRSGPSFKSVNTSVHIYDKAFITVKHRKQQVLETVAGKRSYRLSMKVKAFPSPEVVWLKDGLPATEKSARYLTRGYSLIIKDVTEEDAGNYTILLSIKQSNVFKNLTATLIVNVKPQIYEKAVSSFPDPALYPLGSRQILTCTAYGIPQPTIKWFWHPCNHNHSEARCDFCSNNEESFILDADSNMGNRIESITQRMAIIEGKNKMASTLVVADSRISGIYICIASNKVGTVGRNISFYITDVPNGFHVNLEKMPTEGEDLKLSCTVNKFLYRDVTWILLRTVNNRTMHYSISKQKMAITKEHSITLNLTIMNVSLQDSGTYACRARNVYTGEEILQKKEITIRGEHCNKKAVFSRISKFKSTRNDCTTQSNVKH
Flt-1 receptor (plate based assay), sequence (P17948 27-758 limits assumed): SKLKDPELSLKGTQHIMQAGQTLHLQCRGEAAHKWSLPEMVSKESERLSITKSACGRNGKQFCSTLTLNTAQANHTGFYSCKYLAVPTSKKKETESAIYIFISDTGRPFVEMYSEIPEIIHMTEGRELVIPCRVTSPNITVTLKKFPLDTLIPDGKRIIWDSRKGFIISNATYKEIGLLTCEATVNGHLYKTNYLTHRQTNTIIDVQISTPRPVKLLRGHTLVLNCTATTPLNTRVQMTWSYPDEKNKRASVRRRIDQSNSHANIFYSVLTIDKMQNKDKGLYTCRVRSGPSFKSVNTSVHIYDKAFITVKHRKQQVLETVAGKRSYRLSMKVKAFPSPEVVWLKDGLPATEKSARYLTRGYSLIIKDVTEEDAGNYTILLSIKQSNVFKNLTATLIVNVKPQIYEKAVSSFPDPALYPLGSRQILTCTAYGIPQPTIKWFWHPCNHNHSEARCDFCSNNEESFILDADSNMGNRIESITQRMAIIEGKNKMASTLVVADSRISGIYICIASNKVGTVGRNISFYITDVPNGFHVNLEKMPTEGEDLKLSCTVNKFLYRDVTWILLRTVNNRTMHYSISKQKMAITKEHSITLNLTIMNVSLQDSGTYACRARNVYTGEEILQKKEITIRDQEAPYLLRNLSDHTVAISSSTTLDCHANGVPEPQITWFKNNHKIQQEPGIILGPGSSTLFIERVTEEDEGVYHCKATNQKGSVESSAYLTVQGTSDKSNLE

B1: wild-type human PLGF protein (ligand)
chain: LPAVPPQQWALSAGNGSSEVEVVPFQEVWGRSYCRALERLVDVVSEYPSEVEHMFSPSCVSLLRCTGCCGDENLHCVPVETANVTMQLLKIRSGDRPSYVELTFSQHVRCECRPLREKMKPERCGDAVPRR
notes: also called WT PLGF; Human WT-PLGF
Turning to B1, the off-rate constant (koff) with mouse sFlt-1 [1] is 0.000243 s⁻¹ and 0.000152 s⁻¹; with human sFlt-1-Fc [3], 6.03e-05 s⁻¹ and 8.86e-05 s⁻¹. Further, the kon is 2.73e+06 M⁻¹ s⁻¹ and 6.36e+06 M⁻¹ s⁻¹ in the assay with mouse sFlt-1 [1]; 1.61e+06 M⁻¹ s⁻¹ in the assay with human sFlt-1-Fc [3]; 2.33e+06 M⁻¹ s⁻¹ with human sFlt-1-Fc [5]. The Kd was 0.0405 nM with human sFlt-1-Fc [2]; 0.0259 nM and 0.0551 nM with human sFlt-1-Fc [3]; 0.0565 nM with mouse sFlt-1 [6]. For the same molecule, the half-maximal effective concentration (EC50 (read off the curve)) in assay [4] was approximately 0.2 nM. For the same molecule, the half-maximal inhibitory concentration (IC50) in the assay with human sFlt-1-Fc [7] is 4.59 nM.

B2: mouse WT PLGF (ligand, UniProt P49764 19-158, looked up)
chain: VHSQGALSAGNNSTEVEVVPFNEVWGRSYCRPMEKLVYILDEYPDEVSHIFSPSCVLLSRCSGCCGDEGLHCVPIKTANITMQILKIPPNRDPHFYVEMTFSQDVLCECRPILETTKAERRKTKGKRKRSRNSQTEEPHP
In the case of B2, in the assay with mouse sFlt-1 [1], the dissociation constant (Kd) is 0.0301 nM and 0.0109 nM; the koff was 0.000135 s⁻¹ and 9.69e-05 s⁻¹; the kon was 4.49e+06 M⁻¹ s⁻¹ and 8.86e+06 M⁻¹ s⁻¹. Further, the Kd with mouse sFlt-1 [6] amounted to 0.0205 nM.

B3: PLGF C59A (ligand)
chain: LPAVPPQQWALSAGNGSSEVEVVPFQEVWGRSYCRALERLVDVVSEYPSEVEHMFSPSAVSLLRCTGCCGDENLHCVPVETANVTMQLLKIRSGDRPSYVELTFSQHVRCECRPLREKMKPERCGDAVPRRHHHHHH
notes: Expressed in human fibrosarcoma cells, purified on a Nickel column, glycosylated; RC4 96.7% monomer; R3 97.1% monomer, formulated in 1 mM DTT; also called C59A PLGF; not shown: Tev protease cleavage site added at the C-terminus
As for B3, in the assay with mouse sFlt-1 [1], the Kd was 7.22 nM and 3.12 nM; the koff is 0.000496 s⁻¹ and 0.000633 s⁻¹; the kon was 159000 M⁻¹ s⁻¹ and 87700 M⁻¹ s⁻¹. Further, in the assay with mouse sFlt-1 [8], the “fold weaker affinity than human WT PLGF with msFlt-1” value is approximately 90 fold and the “fold weaker affinity than mouse WT PLGF with msFlt-1” value is approximately 250 fold. In the assay with human sFlt-1-Fc [2], this molecule registered a Kd of 1.25 nM. In addition, in the assay with human sFlt-1-Fc [9], the dissociation constant Kd worked out at 0.572 nM, the koff is 0.000338 s⁻¹ and the on-rate constant (kon) was found to be 592000 M⁻¹ s⁻¹. Moreover, the Kd in the assay with human sFlt-1-Fc [10] is approximately 49 nM. Also, in the assay with human sFlt-1-Fc [11], the Ka amounted to 2.03e+07 M⁻¹, the ΔH was -12.8 kcal/mol and the ΔS was -9.4 cal/mol/deg. In addition, the affinity in the assay with mouse sFlt-1 [6], expressed as Kd, was 5.17 nM. For the same molecule, the IC50 with human sFlt-1-Fc [7] is 28.3 nM. In the assay with human sFlt-1-Fc [12], the dissociation constant (Kd) was 1.61 nM and 0.886 nM; the koff was 0.000372 s⁻¹ and 0.000234 s⁻¹; the association rate constant (kon) was 231000 M⁻¹ s⁻¹ and 264000 M⁻¹ s⁻¹.
